Numbering of substitutions follows the chain as printed.
B1: ADAM10D+C[EEE-A]: ADAM10D+C with Glu573, Glu578 and Glu579 mutated to alanines (protein)
chain: SGQPICGNGMVEQGEECDCGYSDQCKDECCYDANQPEGKKCKLKPGKQCSPSQGPCCTAHCAFKSKTEKCRDDSDCAKEGICNGITALCPASDPKPNFTDCNRHTQVCINGQCAGSICAKHGLAACTCASSDGKDDKELCHVCCMKKMEPSTCASTGSVQWNKYFLGRTITLQPGSPCNDFRGYCDVFMRCR
B2: ADAM10D+C[RDD-A]: ADAM10D+C with Ala substitutions of Arg525, Asp526, Asp527 (protein)
chain: B1 chain with R71A, D72A, D73A, A119E, A124E, A125E
B3: full-length ADAM10[EEE-A] (protein)
chain: TTVAEKNTCQLYIQTDHLFFKYYGTREAVIAQISSHVKAIDTIYQTTDFSGIRNISFMVKRIRINTTADEKDPTNPFRFPNIGVEKFLELNSEQNHDDYCLAYVFTDRDFDDGVLGLAWVGAPSGSSGGICEKSKLYSDGKKKSLNTGIITVQNYGSHVPPKVSHITFAHEVGHNFGSPHDSGTECTPGESKNLGQKENGNYIMYARATSGDKLNNNKFSLCSIRNISQVLEKKRNNCFVESGQPICGNGMVEQGEECDCGYSDQCKDECCYDANQPEGKKCKLKPGKQCSPSQGPCCTAHCAFKSKTEKCRDDSDCAKEGICNGITALCPASDPKPNFTDCNRHTQVCINGQCAGSICAKHGLAACTCASSDGKDDKELCHVCCMKKMEPSTCASTGSVQWNKYFLGRTITLQPGSPCNDFRGYCDVFMRCRLVDADGPLARLKKAIFSPELYENIAEWIVAYWWAVLLMGIALIMLMAGFIKICSVHTPSSNPKLPPPKPLPGTLKRRRPPQPIQQPQRQRPRESYQMGHMRR
B4: full-length ADAM10 with lysine (3K) substitutions of Glu573, 578, 579 (protein)
chain: B3 chain with A360K, A365K, A366K

Tests used:
EphA3/HEK293 cells = assay: Ephrin-A5 cleavage and internalisation in EphA3-expressing cells treated with clustered ephrin-A5-Fc / ephrinA5-Fc beads; assay type: cell-based, human
Method: FIG. 1. EphA3-ADAM10 association, ephrin-A5 cleavage and ephrin internalisation. • A. Association of ADAM10 with EphA3 in LiBr melanoma cells and parental or stably transfected EphA3/HEK293 cells. The cells were treated with clustered ephrin-Fc (A5 or A2) or were left untreated (−) prior to lysis. Anti-EphA3 immunoprecipitates from lysates were analysed by Western blot for endogenous ADAM10 (“p” and “m” indicate the pro (unprocessed) and mature (processed) forms of ADAM10). Aliquots from immunoprecipitates were blotted for EphA3 levels to indicate loading (lower panel). […] EphA3/HEK293 or ephrin-A5/HEK293 cells were transfected to express HA-tagged ADAM10ΔPM. Western Blots of anti-HA immuno-precipitates were analysed with antibodies against ephrin-A5 and EphA3, parallel control samples with anti-ADAM10 antibodies. Lysates of ephrin-A5/HEK 293 cells were also extracted with Protein-A Sepharose-bound EphA3 Fc and analysed with anti-ephrin-A5 antibodies. • C. […] Pooled cell lysates and supernatants were pre-cleared with excess Protein-A Sepharose, cleaved ephrin-A5 was extracted using EphA3-Fc coupled to Protein-A Sepharose and analysed by anti-ephrin-A5 immuno-blot. Recombinant, monomeric, single-chain ephrin-A5 (Himanen et al., 2004, Nat Neurosci. 7 501-9; ephrin std) was analysed in parallel. • D. Ephrin-A5 cleavage and internalisation are inhibited by dominant-negative ADAM10. […]

EphA3/ephrin-A5 complex = target: T1, EphA3/ephrin-A5 complex (Homo sapiens, UniProt P29320+P52803); assay: In vitro binding (Protein-A pull-down) assay; details: EphA3-Fc plus untagged ephrin-A5
T1 construct: incubated with Fc-tagged ectodomains of Eph-A3, EphB2, EphB4 and ephrin-A2, ephrin-A5, ephrin-B2 (R&D systems)
T1 sequence (P29320 21-541 limits assumed): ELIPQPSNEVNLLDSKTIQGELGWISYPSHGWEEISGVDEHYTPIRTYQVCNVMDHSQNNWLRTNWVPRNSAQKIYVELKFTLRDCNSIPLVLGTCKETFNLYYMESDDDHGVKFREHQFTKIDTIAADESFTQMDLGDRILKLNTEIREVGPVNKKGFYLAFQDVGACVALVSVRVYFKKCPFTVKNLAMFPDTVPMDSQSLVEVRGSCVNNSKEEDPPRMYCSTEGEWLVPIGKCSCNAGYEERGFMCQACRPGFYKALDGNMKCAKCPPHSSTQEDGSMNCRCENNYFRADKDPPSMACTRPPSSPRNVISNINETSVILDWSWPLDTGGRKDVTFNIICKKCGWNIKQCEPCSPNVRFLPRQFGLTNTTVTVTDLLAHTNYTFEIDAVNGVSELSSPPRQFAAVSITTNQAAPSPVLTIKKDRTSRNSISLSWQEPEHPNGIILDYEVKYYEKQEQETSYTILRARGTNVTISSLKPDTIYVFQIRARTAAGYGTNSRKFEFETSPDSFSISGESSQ
T1 sequence (P52803 21-203 limits assumed): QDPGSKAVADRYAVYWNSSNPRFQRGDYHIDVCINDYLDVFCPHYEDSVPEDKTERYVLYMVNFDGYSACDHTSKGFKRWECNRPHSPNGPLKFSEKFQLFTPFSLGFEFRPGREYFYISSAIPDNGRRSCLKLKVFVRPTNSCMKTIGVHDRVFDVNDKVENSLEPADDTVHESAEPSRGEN
Method: Pull-down experiments were done as follows: ADAM10D+C, ADAM17D+C w.t. or the alanine mutants (˜15 μg) were incubated with Fc-tagged ectodomains of Eph-A3, EphB2, EphB4 and ephrin-A2, ephrin-A5, ephrin-B2 (R&D systems) at 4° C. for 30 min in 500 μL of binding buffer containing 10 mM HEPES (pH 7.4), 150 mM NaCl and 0.05% of Triton X-100. To test binding to the preformed EphA3/ephrin-A5 complex, 5 μg of the untagged ephrin-A5 was incubated with Fc tagged EphA3 for 30 min at 4° C. followed by the addition of ADAM10. The proteins were incubated for an additional 30 min., when Protein-A-Sepharose (Amersham) beads were added to the reaction mixture and shaken at 4° C. for 2h. The beads were then harvested by centrifugation, washed once with 500 μl of binding buffer and the bound proteins were separated on a 10-20% gradient polyacrylamide gel. The binding of the individual ADAM domains was carried out likewise using 15 μg of the disintegrin and 8 μg of the cysteine-rich domain.

[1] = target: T2, EphA3/ephrin-A5 complex on cells (cell-surface EphA3 with pre-clustered ephrin-A5-Fc), P29320
T2 chain 1: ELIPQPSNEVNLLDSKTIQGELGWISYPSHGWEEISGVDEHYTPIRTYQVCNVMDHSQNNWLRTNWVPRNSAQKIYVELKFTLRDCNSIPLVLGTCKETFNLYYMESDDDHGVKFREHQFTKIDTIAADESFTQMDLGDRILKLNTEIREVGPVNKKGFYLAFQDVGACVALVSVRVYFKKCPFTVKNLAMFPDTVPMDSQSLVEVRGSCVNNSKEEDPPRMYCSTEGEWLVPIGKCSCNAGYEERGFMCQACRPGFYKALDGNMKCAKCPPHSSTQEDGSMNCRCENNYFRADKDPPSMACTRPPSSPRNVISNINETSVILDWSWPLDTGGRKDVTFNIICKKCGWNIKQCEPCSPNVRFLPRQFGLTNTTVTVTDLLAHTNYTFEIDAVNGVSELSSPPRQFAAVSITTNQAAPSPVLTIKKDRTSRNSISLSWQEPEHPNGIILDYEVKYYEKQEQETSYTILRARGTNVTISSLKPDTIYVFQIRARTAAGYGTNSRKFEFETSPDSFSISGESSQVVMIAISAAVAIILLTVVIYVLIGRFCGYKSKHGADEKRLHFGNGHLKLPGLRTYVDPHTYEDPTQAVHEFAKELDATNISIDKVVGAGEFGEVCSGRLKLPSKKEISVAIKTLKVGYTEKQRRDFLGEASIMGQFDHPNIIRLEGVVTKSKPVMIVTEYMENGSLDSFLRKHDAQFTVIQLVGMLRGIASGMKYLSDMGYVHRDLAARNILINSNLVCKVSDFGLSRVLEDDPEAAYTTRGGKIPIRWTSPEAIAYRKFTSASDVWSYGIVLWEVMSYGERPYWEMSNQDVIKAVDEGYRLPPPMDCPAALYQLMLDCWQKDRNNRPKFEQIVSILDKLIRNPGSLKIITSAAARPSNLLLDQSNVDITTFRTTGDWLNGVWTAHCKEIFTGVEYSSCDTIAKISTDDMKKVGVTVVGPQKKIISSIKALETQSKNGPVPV
T2 chain 2: T1 sequence (P52803 21-203 limits assumed)

Row | Molecule | binding to EphA3/ephrin-A5 complex (EphA3/ephrin-A5 complex) | ephrin-A5 cleavage (cleaved ephrin-A5 recovered with EphA3-Fc, anti-ephrin-A5 Western blot) [1] | also measured
1 | CC(C)C[C@H](CC(=O)NO)C(=O)N[C@@H](Cc1ccc2ccccc2c1)C(=O)N[C@@H](C)C(=O)NCCN [TAPI] | – | – | ephrin-A5 cleavage and internalisation (EphA3/HEK293 cells; pretreated with 50 μM TAPI1 (1h)): inhibited
2 | c1cnc2c(c1)ccc1cccnc12 [1,10-O-Phenanthroline] | – | – | ephrin-A5 cleavage and internalisation (EphA3/HEK293 cells; pretreated with 1 mM OPN (4h)): inhibited
3 | B1 | does not bind | – | –
4 | B2 | retains wild-type binding affinity | – | –
5 | B3 | – | overexpression of mutant ADAM10 with Ala or Lys substitutions of the three Glu residues or lacking the protease domain, effectively inhibited ephrin-A5 cleavage | –
6 | B4 | – | overexpression of mutant ADAM10 with Ala or Lys substitutions of the three Glu residues or lacking the protease domain, effectively inhibited ephrin-A5 cleavage | –

From patent US7960513B2, “Antibody against a human ADAM protease” (Monash University, priority 2004, dated 2011)
